Experiment [1] concerns the target RC1 Env SOSIP trimer (HIV-1 strain BG505). In words: cryo-EM structure.
The target of experiment [2] is WIN332 Env SOSIP trimer (HIV-1 strain BG505). Kind of experiment: cryo-EM structure.

B1: Ab1999 Fab (Fab, V domains shown)
VH: QVQLQESGPGLVKPSETLSLTCAVSGGSISDDYSWSWIRQPPGKGLEWIGYIYGSGGGTNYNPSLKNRVTISIDTSKNQFSLKLSSVTAADTAVYYCARIFAFITVFGVVTPEDNWFDVWGPGVLVTVSS
VL: DIQMTQSPSSLSASVGDRVTITCRASQSINNYLHWYQQRAGEAPKLLIYAASALQTGVPSRFSGSGSGTDFTLTISSLQPEDVATYYCQHSYGTPYSFGQGTKVEIK
In experiment [1], B1 came in with a stoichiometry N (Fab per Env trimer) of 1.

B2: Ab1983 Fab (Fab, V domains shown)
VH: QLQLQESGPGLVKPSETLSLTCAVSGGSISSDYYYWSWIRQPPGKGLEWIGGIYSISESTNYNPSLKSRVTISKDTSKNQFSLKLSSVTAADTAVYFCARKDPYSSGWTPDYWGQGVLVTVSS
VL: QSVLTQPSSASASLGASVTLTCTLSSGYSNYAVDWHQQRPGKGPQFVMRVGTGGIVGSKGDGIPDRFSGSGSGLNRYLTIKNIQEEDESDYHCGADHGTGSSFVWVFGGGTRLTVL
As for B2, the stoichiometry N (Fab per Env trimer) in experiment [2] was determined as 2.

The values are drawn from publication doi:10.1101/2025.09.04.674340.
